The assay has as its target Human α-thrombin (human, UniProt P00734 328-622). In words: fluorescence polarization competition against fluoresceinated γ′408-427 phosphorylated peptide, 2 µM α-thrombin. A general note: Fluorescence polarisation rises when a labelled molecule tumbles more slowly, as on binding a larger partner.

Square brackets hold non-standard residues; d marks the D form. Ends that are not written are not given here. pY = N[C@@H](Cc1ccc(OP(=O)(O)O)cc1)C(=O)O

Turning to E[pY]DSL[pY]PEDDL [γ′ amino-terminal deletion peptide 417-427, phosphotyrosine at 418 and 422], the binding result is “no binding”.

Source of the values: patent US20040248807A1 (OREGON HEALTH AND SCIENCE UNIVERSITY, published 2004).
